{"source": "patent US11339213B2", "about": "“Methods and compositions for treatment of cancer” (MEREO BIOPHARMA 5, INC., priority 2015, dated 2022)", "key": {"OMP-PN42 tumors": {"tested_on": "OMP-PN42 tumors", "test": "OMP-PN42 xenograft, gemcitabine plus nab-paclitaxel with complete DLL4/VEGF inhibition", "type": "in vivo, NOD-SCID mice", "description": "FIG. 11 is a graph showing activity of anti-DLL4/VEGF bispecific in combination with gemcitabine plus nab-paclitaxel (ABRAXANE®). OMP-PN42 tumors were implanted in NOD-SCID mice. Tumor-bearing mice (n=10/group) were treated with control Ab, gemcitabine alone (30 mg/kg weekly), gemcitabine plus nab-paclitaxel, or the combination of anti-DLL4/VEGF (305B83, 21R30, B20) and gemcitabine plus nab-paclitaxel. Antibodies were dosed 10 mg/kg, weekly.\nIn patient-derived xenograft experiments, the stroma and vasculature is comprised of murine cells, whereas the tumor cells are human. Because DLL4 and VEGF are expressed in both tumor cells and in the stroma/vasculature, the previous experiments that were carried out with DLL4 and VEGF antagonists that block signaling of the human, but not murine, proteins and may have underestimated the full anti-tumor effect of blocking these pathways. To address this issue, the effect of simultaneous blockade of DLL4 and VEGF in both human tumor and murine stroma/vasculature cells in our xenograft studies were evaluated. This was done with experiments including surrogate antibodies—anti-mouse DLL4 (21R30) and anti-mouse VEGF (B20) in addition to 305B83 (which blocks human DLL4 and VEGF). Complete DLL4/VEGF inhibition in combination with gemcitabine plus nab-paclitaxel in OMP-PN42 tumors was tested."}, "[1]": {"tested_on": "ovarian serous carcinoma tumor model OMP-OV19", "test": "Tumor recurrence after chemotherapy termination, OMP-OV19", "type": "in vivo, NOD.SCID mice", "settings": "paclitaxel 15 mg/kg with or without antibody once a week for 4 weeks, chemotherapy maintenance 3-4 weeks, monitored up to 2 months after discontinuation", "description": "FIGS. 7A and 7B are graphs showing delay in tumor recurrence by 305B83+21R30 and B20 following chemotherapy termination. Ovarian OMP-OV19 and pancreatic OMP-PN42-tumor bearing animals were randomized and treatment began when mean tumor volumes reached approximately 100-150 mm^3. NOD. SCID mice were treated with 15 mg/kg paclitaxel in OMP-OV19 and 10 mg/kg gemcitabine plus 30 mg/kg nab-pacltiaxel in OMP-PN42 with or without antibody once a week for 4 weeks, followed by a chemotherapy for 3-4 weeks. Thereafter, treatment was discontinued and tumor growth was monitored up to 2 months.\nTo determine the effect of simultaneous blockade of DLL4 and VEGF by the bi-specific antibody 305B83 plus 21R30 (anti-mDLL4) and B20 (anti-mVEGF) on tumor recurrence, an ovarian serous carcinoma tumor model OMP-OV19 and a pancreatic adenocarcinoma model OMP-PN42 were treated in combination with standard of care agents (paclitaxel in ovarian cancer and gemcitabine/nab-paclitaxel in pancreatic cancer) for four weeks followed by a chemotherapy maintenance phase for 3-4 weeks. Subsequently, tumor growth was monitored for up to two months following the discontinuation of treatment."}, "[2]": {"tested_on": "OMP-PN8 pancreatic tumor cells", "test": "OMP-PN8 pancreatic xenograft, antibodies in combination with gemcitabine", "type": "in vivo, NOD-SCID mice", "settings": "with gemcitabine 70 mg/kg weekly for four weeks, then antibody maintained, demcizumab, bevacizumab 15 mg/kg, bispecific 30 mg/kg", "description": "FIG. 9 is a graph showing that DLL4/VEGF bispecific is active in combination with gemcitabine in pancreatic cancer. OMP-PN8 pancreatic tumor cells were injected into NOD-SCID mice. Tumors were allowed to grow for 24 days until they had reached an average tumor volume of 110 mm^3. […] After four weeks of combination treatment, the gemcitabine was discontinued and the antibody treatments were maintained. Gemcitabine was dosed at 70 mg/kg, weekly.\nFollowing four weeks of treatment, the gemcitabine treatment was discontinued and the antibody treatments were maintained."}, "xenograft tumor models": {"tested_on": "xenograft tumor models", "settings": "Hoey et al., 2009; U.S. Pat. No. 7,750,124; cited from earlier work"}, "[3]": {"tested_on": "OMP-PN8 pancreatic tumor cells", "test": "Serial transplantation study of tumor initiating cell frequency, OMP-PN8", "type": "in vivo", "settings": "four weeks of treatment, 90 tumor cells into 10 new mice, 83 days without treatment", "description": "FIG. 10 is a graph showing reduction of tumor-initiating cell frequency from anti-DLL4 activity. […] After four weeks of treatment, tumors were harvested, and the human tumor cells in the xenograft were purified. Ninety tumor cells from each treatment group were injected into new cohorts of 10 mice. Tumors were allowed to grow for 83 days without any further treatment. The volumes of the individual mice in the experiment are shown in the graph.\nTo determine the effect of DLL4 and VEGF inhibition on tumor initiating cell frequency in pancreatic cancer, serial transplantation studies were performed. […] Following four weeks of treatment, the tumors were harvested, and tumor cells from each treatment were implanted into a new set of mice. Tumors were then allowed to grow for 83 days without treatment. In the control group, nine out of ten mice grew large tumors (FIG. 10)."}, "[4]": {"tested_on": "vasculature-related genes, Notch target genes", "test": "Vasculature density and stromal/vascular and Notch target gene expression in treated xenograft tumors", "type": "in vivo, mouse", "settings": "human genes in tumors", "description": "FIGS. 5A-5C are photomicrographs and graphs showing anti-VEGF inhibition of angiogenesis is dominant over anti-DLL4 hyperproliferation in animals receiving 305B83.\nThese experiments were carried out by including surrogate antibodies—anti-mouse DLL4 (21R30) and anti-mouse VEGF (B20)."}, "[5]": {"test": "Phase 1a trial side effects", "type": "in vivo, human", "settings": "patients receiving 305B83", "description": "To manage this side effect, a treatment algorithm was developed. First, if the patient's blood pressure exceeds 140/90, the patient is instructed to phone the principal investigator. The initial goal is to normalize blood pressure in 48-72 hours. Treatment with antihypertensive is to be adjusted daily if the blood pressure is not less than 140/90."}, "OMP-C8 colon tumor cells": {"tested_on": "OMP-C8 colon tumor cells", "test": "Human-mouse chimera skin graft model, luciferase-labeled OMP-C8 colon tumor growth", "type": "in vivo, NOD/SCID mice", "settings": "OMP-C8 in human skin graft; 25 mg/kg intraperitoneally once a week; bioluminescence; compared to control antibody", "method": "Neonatal foreskin graft of about 2 cm^2 was implanted into the lateral trunk of anesthetized NOD/SCID mice. Luciferase-labeled human OMP-C8 colon tumor cells were then injected intradermally into the human skin graft 6 weeks post implant. Treatment was initiated 2 weeks later. Tumor growth was monitored by measurement of bioluminescence with the IVIS-200 Imaging System (Caliper Life Sciences).\nTo evaluate the effect of the bispecific anti-DLL4/VEGF antibody on tumor growth in a microenvironment composed of human cells, the human-mouse chimera skin graft model, in which human tumor cells are implanted intradermally into the full thickness of human skin previously transplanted onto mice was used."}}}
{"molecule": "Nc1ccn([C@@H]2O[C@H](CO)[C@@H](O)C2(F)F)c(=O)n1", "note": "[gemcitabine, reference compound]", "values": [{"measurement": "tumor growth under chemotherapy", "setting": "OMP-PN42 tumors; gemcitabine 30 mg/kg weekly, alone or plus nab-paclitaxel", "value": "minimal effect"}]}
{"molecule": "CC(=O)O[C@H]1C(=O)[C@@]2(C)[C@H]([C@H](OC(=O)c3ccccc3)[C@]3(O)C[C@H](OC(=O)[C@H](O)[C@@H](NC(=O)c4ccccc4)c4ccccc4)C(C)=C1C3(C)C)[C@]1(OC(C)=O)CO[C@@H]1C[C@@H]2O", "note": "[paclitaxel]", "values": [{"measurement": "tumor growth during and after chemotherapy", "setting": "[1]", "value": "grew continuously during the course of study"}]}
{"molecule": "bevacizumab: humanized anti-VEGF monoclonal antibody [reference compound]", "values": [{"measurement": "tumor growth after gemcitabine withdrawal", "setting": "[2]", "value": "had no effect"}]}
{"molecule": "demcizumab: anti-DLL4 antibody, also known as OMP-21M18 or 21M18 (antibody, chains of the INN, looked up, V domains shown) VH: QVQLVQSGAEVKKPGASVKISCKASGYSFTAYYIHWVKQAPGQGLEWIGYISSYNGATNYNQKFKGRVTFTTDTSTSTAYMELRSLRSDDTAVYYCARDYDYDVGMDYWGQGTLVTVSS VL: DIVMTQSPDSLAVSLGERATISCRASESVDNYGISFMKWFQQKPGQPPKLLIYAASNQGSGVPDRFSGSGSGTDFTLTISSLQAEDVAVYYCQQSKEVPWTFGGGTKVEIK", "values": [{"measurement": "frequency of cancer stem cells", "setting": "xenograft tumor models", "value": "reduce the frequency of cancer stem cells"}, {"measurement": "tumor growth", "setting": "xenograft tumor models", "value": "inhibit tumor growth"}, {"measurement": "tumor growth frequency after serial transplantation", "setting": "[3]", "value": "tumor growth frequency was reduced"}, {"measurement": "tumor growth after gemcitabine withdrawal", "setting": "[2]", "value": "significantly delayed tumor growth"}]}
{"molecule": "305B83: bispecific antibody 219R45-MB-21R83, anti-VEGF/anti-DLL4; blocks human DLL4 and VEGF (antibody, chains of the INN, looked up, V domains shown) VH: QVQLVQSGAEVKKPGASVKISCKASGYSFTAYYIHWVKQAPGQGLEWIGYISNYNRATNYNQKFKGRVTFTTDTSTSTAYMELRSLRSDDTAVYYCARDYDYDVGMDYWGQGTLVTVSS VL: DIVMTQSPDSLAVSLGERATISCRASESVDNYGISFMKWFQQKPGQPPKLLIYAASNQGSGVPDRFSGSGSGTDFTLTISSLQAEDVAVYYCQQSKEVPWTFGGGTKVEIK VH2: QVQLVQSGAEVKKPGASVKVSCKASGYTFTNYWMHWVRQAPGQGLEWMGDINPSNGRTSYKEKFKRRVTLSVDKSSSTAYMELSSLRSEDTAVYFCTIHYDDKYYPLMDYWGQGTLVTVSS VL2: DIVMTQSPDSLAVSLGERATISCRASESVDNYGISFMKWFQQKPGQPPKLLIYAASNQGSGVPDRFSGSGSGTDFTLTISSLQAEDVAVYYCQQSKEVPWTFGGGTKVEIK", "values": [{"measurement": "Notch target gene expression in tumors", "setting": "[4]", "value": "modulated Notch target gene expression in tumors similarly to anti-DLL4"}, {"measurement": "tumor growth, complete DLL4/VEGF inhibition with chemotherapy", "setting": "OMP-PN42 tumors; 305B83 plus surrogates 21R30 and B20, 10 mg/kg weekly, with gemcitabine plus nab-paclitaxel", "value": "complete tumor regression"}, {"measurement": "side effects observed", "setting": "[5]", "value": "development or exacerbation of hypertension in some patients"}, {"measurement": "inhibition of tumor growth (TGI)", "setting": "OMP-C8 colon tumor cells", "value": 87, "unit": "% TGI"}]}
